Data reported in article PMC10702828.

Legend:
[1] = biological target: Ipi3 (Chaetomium thermophilum (endogenous in mycelium)); experiment: cryo-EM structure; pre-60S particles from the Flag eluates of PT-Rsa4 E117D with Nop7-Flag, Rix1-Flag or Flag-Las1
[2] = biological target: Ipi3 (Chaetomium thermophilum (endogenous in mycelium)); experiment: cryo-EM structure; isolated rixosome from the PTF-Las1 eluate; Rix1 complex and Las1-Grc3 processed individually, whole rixosome at low resolution
[3] = biological target: polynucleotide kinase Grc3 (Chaetomium thermophilum (endogenous in mycelium)); experiment: as above
[4] = biological target: wild‐type ct PTF‐Las1 (Chaetomium thermophilum); experiment: as above
[5] = biological target: Rix1 (Chaetomium thermophilum (endogenous in mycelium)); experiment: cryo-EM structure; pre-60S particles from the Flag eluates of PT-Rsa4 E117D with Nop7-Flag, Rix1-Flag or Flag-Las1
[6] = biological target: Rix1 (Chaetomium thermophilum (endogenous in mycelium)); experiment: cryo-EM structure; isolated rixosome from the PTF-Las1 eluate; Rix1 complex and Las1-Grc3 processed individually, whole rixosome at low resolution

In the case of Ipi3 (natural protein), the stoichiometry N [1] is reported as 2 copies and the stoichiometry N [2] is reported as 2 copies.

polynucleotide kinase Grc3 (enzyme) showed a stoichiometry N [3] of 2 copies.

Work on wild‐type ct PTF‐Las1 (enzyme) yielded a stoichiometry N [4] of 2 copies.

With Rix1 (natural protein) the stoichiometry N [5] was 2 copies and the stoichiometry N [6] was 2 copies.
